Assay results taken from the RNAGym collection of RNA variant scans (doi:10.7554/elife.90254).

B1: LINE1-mini (parent)
chain: GGCAGAGCUCAACACAGCGUGGCAAAGUGGCUGUGGCUAGACUGCC

Variants of: B1
Assay: self-cleavage, relative activity (ratio to wild type); higher = more cleavage; in vitro, sequencing; the parent is a self-cleaving ribozyme

Row | Variant | self-cleavage
1 | A6G A16C | 0.04
2 | A6G U32A | 0.07
3 | A6G U32G | 0.07
4 | A6G U32C | 0.07
5 | G5U U20C | 0.05
6 | G5U U20A | 0.06
7 | G5U U20G | 0.06
8 | A6C A25G | 0.18
9 | A6C A25C | 0.5
10 | A6C A25U | 0.52
11 | A6C G21C | 0.42
12 | A6C G21U | 0.44
13 | A6C G21A | 1.34
14 | A6C G35A | 0.08
15 | A6C G35C | 0.05
16 | A6C G35U | 0.09
17 | A6C G27A | 0.5
18 | A6C G27U | 0.56
19 | A6C G27C | 0.57
20 | A6U A12C | 0.04
21 | A6U A12G | 0.04

Row | Variant | self-cleavage
22 | A6U A12U | 0.17
23 | A6C A14G | 0.16
24 | A6C A14U | 0.22
25 | A6C A14C | 0.13
26 | A6C G36C | 0.16
27 | A6C G36A | 0.31
28 | A6C G36U | 0.06
29 | G5U G36A | 0.33
30 | G5U G36U | 0.57
31 | G5U G36C | 0.04
32 | A6C G29C | 0.36
33 | A6C G29A | 0.7
34 | A6C G29U | 0.61
35 | A6G C42U | 0.07
36 | A6G C42A | 0.12
37 | A6G C42G | 0.04
38 | A6C G7C | 0.08
39 | A6C G7U | 0.1
40 | A6C G7A | 0.18
41 | A6G G21U | 0.13
42 | A6G G21C | 0.13

Row | Variant | self-cleavage
43 | A6G G21A | 0.23
44 | A6U A14U | 0.27
45 | A6U A14C | 0.11
46 | A6U A14G | 0.1
47 | A6C C15A | 0.1
48 | A6C C15G | 0.04
49 | A6C C15U | 0.66
50 | A6C U20C | 0.33
51 | A6C U20G | 0.35
52 | A6C U20A | 0.52
53 | G5U U43C | 0.06
54 | G5U U43G | 0.1
55 | G5U U43A | 0.08
56 | A6G A26C | 0.14
57 | A6G A26G | 0.1
58 | A6G A26U | 0.1
59 | A6C C8G | 0.07
60 | A6C C8A | 0.26
61 | A6C C8U | 0.51
62 | G5U G29A | 0.15
63 | G5U G29C | 0.04

Row | Variant | self-cleavage
64 | G5U G29U | 0.12
65 | A6C C23A | 0.5
66 | A6C C23G | 0.43
67 | A6C C23U | 0.62
68 | A6G U28A | 0.05
69 | A6G U28G | 0.09
70 | A6G U28C | 0.05
71 | A6C C42U | 0.23
72 | A6C C42A | 0.11
73 | A6C C42G | 0.02
74 | A6U C18A | 0.52
75 | A6G G27U | 0.08
76 | A6G G27A | 0.14
77 | A6G G27C | 0.07
78 | A6G A41U | 0.1
79 | A6G A41G | 0.39
80 | A6G A41C | 0.15
81 | G5U U9C | 0.05
82 | G5U U9G | 0.11
83 | G5U U9A | 0.36
